According to the nanobody polyreactivity screen of Harvey et al. (2022):

Assay: yeast display, Sf9 membrane polyspecificity reagent, FACS + sequencing; frameworks hold sequencing errors
Summary of the method: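 Galactose induction of a Saccharomyces cerevisiae BJ5465 synthetic nanobody display library ran 36–48 hours. The cells were then stained for 1 hour at 4 °C with 10% biotinylated, detergent-solubilized Sf9 membrane reagent, pulled down on streptavidin microbeads and FACS-sorted into low and high (top ~1%) gates on expression and reagent-binding fluorescence. Labels for polyreactivity follow the gate of origin.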

Sequence | polyreactivity (PSR sort gate)
QVQLVESGGGLVQAGGSLRLSCAASGSIFKYYTMGWYRQAPGKERELVAAISGSGSRTYYADSVKGRFTISRDNAKNTVYLQMNSLKPEDTAVYYCAAEVKDSFVNAKSYYWGQGTQVTVSS | high polyreactivity
QVQLVESGGGLVQAGGSLRLSCAASGSIFKYYTMGWYRQAPGKERELVSGISYRGGSTYYADSVKGRFTISRDNAKNTVYLQMNSLKPEDTAVYYCNAVQLSGGDYWGQGTQVTVSS | high polyreactivity
QVQLVESGGGLVQAGGSLRLSCAASGSIFLAYAMGWYRQAPGKERELVAAITAGTGSTYYADSVKGRFTISRDNAKNTVYLQMNSLKPEDTAVYYCAKAVSLFRGPFSSFDYWGQGTQVTVSS | low polyreactivity
QVQLVESGGGLVQAGGSLRLSCAASGSIFLDNAKGWYRQAPGKERELVSAISSGGNTNYADSVKGRFTISRDNAKNTVSLQMNSLKPEDTAVYYCAADPTKWHYYVPRYYYWGQGTQVTVSS | low polyreactivity
QVQLVESGGGLVQAGGSLRLSCAASGSIFLDYAMGWYRQAPGKERELVAGITISGGSTYYADSVKGRFTISRDNAKNTVYLQMNSLKPEDTSVYYCAKVAPRSSSSQEYYYWGQGTQVTVSS | low polyreactivity
QVQLVESGGGLVQAGGSLRLSCAASGSIFLEYAMGWYRQAPGKERELVAAISSSGGSTYYADSVKGRFTISRDNAKYTVYLQMNSLKPEDTAVYYCAAGGHYYSSPGYNYWGQGTQVTVSS | high polyreactivity
QVQLVESGGGLVQAGGSLRLSCAASGSIFLGNALGWYRQAPGKERELVAAISRSGGRTYYADSVKGRFTISRDNAKNTVYLQMNSLKPEDTAVYYCAARSYGIYYAKEFYYWGQGTQVTVSS | high polyreactivity
QVQLVESGGGLVQAGGSLRLSCAASGSIFLGNAMGWYRQAPGKERELVAAISGGDSTNYADSVKGRFTISRDNAKNTVYLQMNSLKPEDTAVYYCAKDRPQEYDYWGQGTQVTVSS | low polyreactivity
QVQLVESGGGLVQAGGSLRLSCAASGSIFLGNAMGWYRQAPGKERELVAAITSRGGRTYYADSVKGRFTISRDNAKNTVYLQMISLKPEDTAVYYCAADVSRPRAGFNYWGQGTQVTVSS | high polyreactivity
QVQLVESGGGLVQAGGSLRLSCAASGSIFLGNAMGWYRQAPGKERELVAAITWSGGSTTYADSVKGRFTISRDNAKNTVYLQMNSLKREDTAVYYCNASIYQRYDYWGQGTQVTVSS | low polyreactivity
QVQLVESGGGLVQAGGSLRLSCAASGSIFLGYAMGWYRQAPGKERELVAAISWTGGSTYYADSVKGRFTISRDNAKNTVYLQMNSLTPEDTAVYYCAAEDQYGFDYWGQGTQVTVYS | high polyreactivity
QVQLVESGGGLVQAGGSLRLSCAASGSIFLGYTMGWSRQAPGKERELVAAINSSGGSTYYADSVKGRFTISRDNAKNTVYLQMNSLKPEDTAVYYCAVANSILLFDSWGQGTQVTVSS | low polyreactivity
QVQLVESGGGLVQAGGSLRLSCAASGSIFLGYTMGWYRQAPGKERELVAAINSSGGSTYYADSVKGRFTISRDNAKNTVYLQMNSLKPEDTAVYYCADANSILLFDSWGQGTQVTVSS | low polyreactivity
QVQLVESGGGLVQAGGSLRLSCAASGSIFLGYVMGWSRQAPGKERELVAAITNSGGSTYYADSVKGRFTISRDNAKNTVYLQINSLKPEDTAVYYCAADSITSKNQGLDYDYWGQGTQVTVSS | low polyreactivity
QVQLVESGGGLVQAGGSLRLSCAASGSIFLLNAMGWYRQAPGKERELVARIRINGGSTYYADSVKGRFTISRDNAKNTVYLKMNSLKPEDTAVYYCAADDTGPYSNWYDYWGQGTQVTVSS | low polyreactivity
QVQLVESGGGLVQAGGSLRLSCAASGSIFLLYAMGGYRQAPGKERELVAAITRGGGSTYYADSVKGRFTISRDNAKNTVYLQMNSLKPEDTAVYYCAKGFQNHNGRLVVAYDYWGQGTQVTVSS | low polyreactivity
QVQLVESGGGLVQAGGSLRLSCAASGSIFLLYAMGWYRQAPGKERELVAAISYSGGATYYADSVKGRFTISRDNAKYTVYLQMNILKPEDTAVYYCAAEAYDDYDYWGQGTQVTVSS | low polyreactivity
QVQLVESGGGLVQAGGSLRLSCAASGSIFLLYAMGWYRQAPGKERELVARISWSGDNTRYADSVKGRFTISRDNAKNTVYLQMNSLKPEDTAVYYCNAYYFYGQWKGYDYWGQGTQVTVSS | low polyreactivity
QVQLVESGGGLVQAGGSLRLSCAASGSIFLPYAMGWYRQAPGKERELVAAIDTSSGSTYYADSVKGRFTISRDNAKNTVYLQMNSLKPEDTAVYYCNADYWVQGDDWLLYDYWGQGTQVTVSS | low polyreactivity
QVQLVESGGGLVQAGGSLRLSCAASGSIFLQNAMGWYRQAPGKERELVARITTSGGSTYYADSVKGRFTISRDNAKNTVYLPMNSQKPEDTAVYYCAVRSRRQRGGIRGFDYGGQGTQVTVSS | high polyreactivity
QVQLVESGGGLVQAGGSLRLSCAASGSIFLQYAMAWYRQAPGKERELVAAISWSGGSTYYAYSVKGRFTISRDNAKNTVYLQMNSLKPEDTAVYYCAAPITPYSHYRMDYWGQGTQVTVSS | low polyreactivity

Sequence | polyreactivity (PSR sort gate)
QVQLVESGGGLVQAGGSLRLSCAASGSIFLRNAMGWYRQAPGKERELVAAITYSSGSTYYADSVKGRFTISRDNAKNTVYLQMNSLKPEDTAVYYCAATSRSSRRYYYWGQGTQVTVSS | high polyreactivity
QVQLVESGGGLVQAGGSLRLSCAASGSIFLRYAMGWYRQAPGKERELVAAITTGGGSTYYADSVKGRFTISRDNAKNTVYLQMNSLKPEDTAVYYCAARIRQNPGGDNSWGQGTQVTVSS | low polyreactivity
QVQLVESGGGLVQAGGSLRLSCAASGSIFLSNARGWYIQAPGKERELVADIDWTRGDTYYADSVKGRFTISRDNAKNTVYLQMNSLKPEDTAVYDCAADYGYRNLLTEYGYWGQGTEVTVSS | low polyreactivity
QVQLVESGGGLVQAGGSLRLSCAASGSIFLSYAMGWYRQAPGKERELVAAISGRGGSTYYADSVKGRFTISRDNAKNTGYLQMNSLKPEDTAVNYCASEQWGWYWYDYWGQGTQVTVSS | high polyreactivity
QVQLVESGGGLVQAGGSLRLSCAASGSIFLTYAMGWYRQAPGKERELVAAISSSVGSTNYADSVKGRFTISRDNAKNTVYLQMNSLKPEDTAVYYCNATGVQYFLYGYWGQGTQVTVSS | low polyreactivity
QVQLVESGGGLVQAGGSLRLSCAASGSIFLVNAMGWYRQAPGKERELVAAINSGGSTYYADSVKGRFTISRDNAKNTVYLQMNSLKPEDTAVYYCAADFWLKVWQDTDYDYDYWGQGTQVTVSS | low polyreactivity
QVQLVESGGGLVQAGGSLRLSCAASGSIFLVNAMGWYRQAPGKERELVAAITYGGDSTYYADSVKGRFTISRDNAKNTVYLQMNSLKPEDTAVYYCAADAWVGWHDEYDYWGQGTQVTVSS | low polyreactivity
QVQLVESGGGLVQAGGSLRLSCAASGSIFLVYAMGWYRQAPGKERELVAAISRSGRTYADSVKGRFTISRDNAKNTVYLQMNSLKPEDTAVYYCAAGTKRRFEGDYWGQGTQVTVSS | high polyreactivity
QVQLVESGGGLVQAGGSLRLSCAASGSIFLWNAMGWYRQAPGKERELVAAITWRGGRTSYADSVKGRFTISRDNAKNTVYLQMNSLKPEDTAVYYCAKEAHPPWTGQDVFRSYDYWGQGTQVTVSS | low polyreactivity
QVQLVESGGGLVQAGGSLRLSCAASGSIFLYNAMGWYRQAPGKERELVADITTTGGSTYYADSVKGRFTISRDNAKNTVYLQMNSLKPEDTAVYYCNVDYWGQGTQVTVSS | low polyreactivity
QVQLVESGGGLVQAGGSLRLSCAASGSIFLYYAMGWYRQAPGKERELVAAISGRAGSTYYADSVKGRFTISRDNAKNTVYLQMNSLKPEDTAVYYCAAGYWQGYPGFKYYWGQGTQVTVSS | low polyreactivity
QVQLVESGGGLVQAGGSLRLSCAASGSIFLYYTMGWYRQEPGKERELVAAITWSGSSTYYADSVKGRFTISRDNAKNTVYLQMNSLKPEDTAVYYCATRYRYRYWGQGTQVTVSS | high polyreactivity
QVQLVESGGGLVQAGGSLRLSCAASGSIFNAYVMGWYRQAPGKERELVAAISRSGGRTYYADSVKGRFTISRDNAKNTVYLQMNSLKPEDTAVYYCAADYGGPYGQLDYWGQGTQVTVSS | high polyreactivity
QVQLVESGGGLVQAGGSLRLSCAASGSIFNGYAMGWYRQAPGKERELVADIRSGGSTYYADSVKGRFTISRDNAKYTVYLQMNSLKPEDTAVYYCAADTITDGYDYWGQGTQVTVSS | low polyreactivity
QVQLVESGGGLVQAGGSLRLSCAASGSIFNGYAMGWYRQAPGKVRELVAAISWNGGRTYYADSVKGRFTISRDNAKNTVYLQKNSLKPEDTAVYYCNKVSGYDVDYWGQGTQVTVSS | high polyreactivity
QVQLVESGGGLVQAGGSLRLSCAASGSIFNHYAMGWYRQAPGKERELVAAISGSGGSTYYADSVKGRFTISRDNAQNTVYLQMYSLKPEDTAVYYCAARILRHWVSAEYYWGQGTQVTVSS | low polyreactivity
QVQLVESGGGLVQAGGSLRLSCAASGSIFNHYAMGWYRQAPGKERELVAVIPSGGSTNYADSVKGRFTISRDNAKNTVYLQMNSLKPEDTAVYYCAADTYLSAVDYYGWAHDYWGQGTQVTVSS | low polyreactivity
QVQLVESGGGLVQAGGSLRLSCAASGSIFNINAMGWYRQAPGKEREFVAAIDYSDSTYYADSVKGRFTISRDNAKNTVYLQMNSLKPEDTAVYYCAADVWKDGYWGDYWGQGTQVNVSS | high polyreactivity
QVQLVESGGGLVQAGGSLRLSCAASGSIFNKYAMGWYRQAPGKERELVAAISVSGTRTYYADSVKGRFTISRDNAKNTVYLQMNSLKPEDTAVYYCAAGGVGAYDYWGQGTQVTVSS | high polyreactivity
QVQLVESGGGLVQAGGSLRLSCAASGSIFNPNAMGWYRQAPGKERELLAAIDSGGTTDYADSVKGRFTISRDNAKNTVYLQMNSLKPEVTAVYYCNADRTVTSSSFTDYDYWGQGTQVTVSS | high polyreactivity
